Molecular target: T1, recombinant human α5β1 ECD heterodimer (human, UniProt P08648 42-995; P05556 21-728)
T1 construct: integrin α5, human, extracellular domain; integrin β1, human, extracellular domain; also called recombinant heterodimer of integrin ECD (α5β1); source: bought: R&D Systems (3230-A5-050)
Test: pull-down; TMEM2–ECD-His6 (about 5 μg/20 μl) held on ProBond nickel chelating resin; 2 μg recombinant integrin ECD heterodimer incubated in HBSS++ overnight at 4 °C; control unbound resin; blots
Conditions: both partners purified

T1 sequence (P08648 42-995, chain 1 of 2): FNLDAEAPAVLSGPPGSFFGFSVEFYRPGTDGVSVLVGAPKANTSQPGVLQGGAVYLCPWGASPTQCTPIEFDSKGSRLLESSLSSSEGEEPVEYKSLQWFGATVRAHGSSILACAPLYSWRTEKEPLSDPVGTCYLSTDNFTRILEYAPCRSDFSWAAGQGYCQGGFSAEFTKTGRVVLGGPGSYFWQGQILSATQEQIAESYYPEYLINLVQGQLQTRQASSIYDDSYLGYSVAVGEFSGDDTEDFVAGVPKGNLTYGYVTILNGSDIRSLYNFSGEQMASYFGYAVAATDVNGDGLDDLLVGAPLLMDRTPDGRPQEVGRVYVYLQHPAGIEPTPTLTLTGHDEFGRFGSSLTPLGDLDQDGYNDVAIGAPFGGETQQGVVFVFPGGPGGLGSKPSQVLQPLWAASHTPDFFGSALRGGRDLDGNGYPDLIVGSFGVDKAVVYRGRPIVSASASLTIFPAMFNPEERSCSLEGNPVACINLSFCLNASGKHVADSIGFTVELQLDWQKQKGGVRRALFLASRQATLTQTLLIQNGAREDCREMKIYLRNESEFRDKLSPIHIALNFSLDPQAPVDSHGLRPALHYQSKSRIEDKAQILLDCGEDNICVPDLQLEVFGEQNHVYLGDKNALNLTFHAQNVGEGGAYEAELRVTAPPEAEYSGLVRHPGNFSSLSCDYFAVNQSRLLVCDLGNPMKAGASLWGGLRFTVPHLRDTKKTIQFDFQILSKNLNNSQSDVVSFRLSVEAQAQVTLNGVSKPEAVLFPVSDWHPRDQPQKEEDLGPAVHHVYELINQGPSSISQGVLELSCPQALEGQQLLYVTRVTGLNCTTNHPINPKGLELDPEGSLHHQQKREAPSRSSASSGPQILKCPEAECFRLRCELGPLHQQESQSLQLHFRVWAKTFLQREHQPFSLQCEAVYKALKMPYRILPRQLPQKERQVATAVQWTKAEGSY
T1 sequence (P05556 21-728, chain 2 of 2): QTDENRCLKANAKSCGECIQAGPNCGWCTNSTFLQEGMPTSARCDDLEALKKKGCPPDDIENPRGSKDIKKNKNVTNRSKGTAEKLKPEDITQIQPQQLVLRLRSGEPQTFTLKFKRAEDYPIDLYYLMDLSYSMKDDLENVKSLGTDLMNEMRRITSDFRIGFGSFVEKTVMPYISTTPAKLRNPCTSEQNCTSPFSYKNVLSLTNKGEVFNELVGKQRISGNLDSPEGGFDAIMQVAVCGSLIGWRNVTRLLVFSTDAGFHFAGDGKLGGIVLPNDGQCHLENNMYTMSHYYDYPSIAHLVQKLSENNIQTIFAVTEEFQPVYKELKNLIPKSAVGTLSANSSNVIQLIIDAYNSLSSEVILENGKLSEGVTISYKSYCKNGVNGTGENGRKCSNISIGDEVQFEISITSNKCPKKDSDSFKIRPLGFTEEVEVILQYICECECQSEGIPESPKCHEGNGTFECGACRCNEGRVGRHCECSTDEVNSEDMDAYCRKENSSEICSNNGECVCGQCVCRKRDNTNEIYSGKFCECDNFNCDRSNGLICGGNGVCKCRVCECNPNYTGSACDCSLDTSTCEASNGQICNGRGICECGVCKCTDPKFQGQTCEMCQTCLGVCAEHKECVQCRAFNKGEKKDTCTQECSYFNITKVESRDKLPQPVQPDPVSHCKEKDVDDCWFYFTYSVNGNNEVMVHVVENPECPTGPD

- binding result: binds
B1: recombinant soluble TMEM2 extracellular domain, 6x His-tagged (domain or fragment, mouse, UniProt Q5FWI3 104-1383, looked up)
chain: SSKYAPDENCPDQNPRLRNWDPGQDSAKHIVIKEGDLFRLTSDATVDSIVIQDGGLLVFGDDKDGSKNITLRTRYILIQDGGALHIGAEKCRYRSKATITLYGKSDERESMPIFGKKFIGVEAGGTLELHGAQRTSWTMLARTLHSSGLPFGSYAFEKDFSRGLNVRVIDQDTARVLENEKFDTHEYHNESRRLQEFLRAQEPGRIVAIAVGDSAVKSLLQGTIQMIQDRLGSKLIQGLGYRQAWALVGVIDGGSSSCNESVRNYENHSTGGKALAQGEFYTLDGQKFSVTAYSEWSQGISLSGFRVDIADGVKLHLLDDVSTWEAGDRIVVASTDYSMYQAEELTLLRCPECSRSQVKVKEIPQYLHVGEIIDGIDMRAEVGLLTRNIVIQGEMEDSCYAENHCQFFDYDTFGGHVMIEKNFTSVHLSYVELKHMGQQHMGRYPVHFHLCGDVDSKGGYSQPASVDGLSVHHSFSRCITVHGTSGLLIKDTIGFDTLGHCFFLEDGVEQRNILYHNLGLLTKPGTLLPTDRNSSMCTVMRDGVFGNYVPVPTTDCMAVSTFWIAHPNNHLINNAAAGSQDAGIWYLFHKEPTGESSGLQLLEKPELTPLGIFYNNRVHSNFKAGLFVDKGVKTTNASASDPREYLCLDNSARFRPHQDADPEKPRVAAIIDRLIAFKNNDNGAWVRGGDIIVQNSAFADNGKGLTFASDGSFPSDEGSSQEVTESLFVGESRNYGFQGGQNKYMGTGGIDQKPRTLPRNRTFPIRGFQIYDGPIHLTKSTFKKYVPTPDRYSSAIGFLMKNSWQTTPRNNVSLVKFGPQVSLNVFFGKPGPWFEDCELDGDKNSIFHDIDGSVTGYKDTYVGRMDNYLIRHPNCVNVTKWNAVICSGTYAQVYVQTWNTPNLSMIITRDEYPSHPMVLRGINQRAISPQYQPVVMLEKGYTIHWNGPAPRTTFLYLVNFNKDDWIRVGLCYPANTSFQVTVGFLQRQNGSLSRIEDYEPARSMEELQKKPSERKFYFDSGTGLLFLYLRAHSHRDGHSYCSSQGCERVKIQAATDSKDISNCMAKAYPQYYKKPSAVKRMPAMLTGLCQGCGTHQMVFTSDPHKSYLPVRFQSPGKAEIQRGDPSIISVNGTDFTFRSAGALLLIVDACSVPFRVKEKRMFLSADVSHMEEYFKASIPPRSIVLLSTRGEIKQLNISDSLAVLGLAKPAHLYSKGSVVFLGFSGNFAPSWTKLFTSPDEQGLGVLEQFLPLQMEEYGCSRTGSVHRRDLDLLQQALKVL
notes: transmembrane protein 2 (TMEM2; CEMIP2), mouse, extracellular domain Ser104–Leu1383; in pSecTag2A with the C-terminal Myc peptide removed; the vector supplies a secretion leader (surmised); also called TMEM2 ECD; TMEM2–ECD; not shown: His6, C-terminal, kept

Reference: publication PMC8042168, “The cell surface hyaluronidase TMEM2 regulates cell adhesion and migration via degradation of hyaluronan at focal adhesion sites” (The Journal of Biological Chemistry, 2021)
